Earlier results on one substance are cited in PMC10320286.

For this data set, the target named is IL-18BP (Homo sapiens) (UniProt O95998).
Sequence of IL-18BP (Homo sapiens) (O95998 31-194): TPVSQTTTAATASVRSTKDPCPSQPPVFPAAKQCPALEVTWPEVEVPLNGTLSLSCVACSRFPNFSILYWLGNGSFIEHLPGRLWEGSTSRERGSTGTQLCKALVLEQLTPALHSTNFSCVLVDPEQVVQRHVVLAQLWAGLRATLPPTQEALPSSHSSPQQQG

Sequence of IL-18 (Q14116 37-193): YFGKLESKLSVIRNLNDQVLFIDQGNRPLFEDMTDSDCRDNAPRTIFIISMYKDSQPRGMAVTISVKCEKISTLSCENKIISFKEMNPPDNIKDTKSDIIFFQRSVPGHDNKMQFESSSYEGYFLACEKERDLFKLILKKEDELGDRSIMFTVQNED

Regarding IL-18 (from UniProt Q14116), the Kd is 0.038 nM.

In general, Kd refers to the equilibrium constant for the complex coming apart.
